# B1: hOX40-Fc (human recombinant protein, R&D Systems) (Fc fusion)
# chain: LHCVGDTYPSNDRCCHECRPGNGMVSRCSRSQNTVCRPCGPGFYNDVVSSKPCKPCTWCNLRSGSERKQLCTATQDTVCRCRAGTQPLDSYKPGVDCAPCPPGHFSPGDNQACKPWTNCTLAGKHTLQPASNSSDAICEDRDPPATQPQETQGPPARPITVQPTEAWPRTSQGPSTRPVEVPGGRAVA
# notes: also called human OX40-Fc; not shown: Fc part of the bought fusion
# Experiments:
# [1] = target: T1, CD32a expressed on HEK cells (UniProt P12318 34-317); assay: flow cytometry (HyperCyt, FL4-H median) on HEK CD32a cells, concentration not given
# T1 construct: whole, on cells; also called HEK CD32a cells
# T1 sequence (looked up): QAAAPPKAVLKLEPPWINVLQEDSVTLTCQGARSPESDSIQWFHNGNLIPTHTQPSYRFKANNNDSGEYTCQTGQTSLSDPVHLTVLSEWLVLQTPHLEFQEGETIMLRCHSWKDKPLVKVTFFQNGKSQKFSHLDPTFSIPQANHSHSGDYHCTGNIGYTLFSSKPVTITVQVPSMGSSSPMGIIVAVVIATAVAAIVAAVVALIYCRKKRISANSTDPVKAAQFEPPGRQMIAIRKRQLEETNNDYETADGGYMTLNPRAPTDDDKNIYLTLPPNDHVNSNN
# [2] = target: B1; assay: Octet: antibody held on PDL1-HiS-Fc loaded anti-HiS sensor, then 5ug/mL rhOx40-Fc association
# [3] = target: T2, human OX40 expressed on cells (human, UniProt P43489 29-277); assay: flow cytometry (HyperCyt, FL4-H median) on Jurkat OX40 cells, one condition, concentration not given
# T2 construct: also called CHO cells expressing human OX40; Jurkat OX40 reporter cells
# T2 sequence: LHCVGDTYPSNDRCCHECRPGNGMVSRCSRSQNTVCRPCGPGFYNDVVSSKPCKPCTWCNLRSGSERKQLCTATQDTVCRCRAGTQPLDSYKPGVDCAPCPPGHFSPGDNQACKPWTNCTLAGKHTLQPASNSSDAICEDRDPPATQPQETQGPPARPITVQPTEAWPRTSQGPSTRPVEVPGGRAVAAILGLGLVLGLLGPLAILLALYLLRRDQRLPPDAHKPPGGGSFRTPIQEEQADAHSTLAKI
# [4] = target: T3, human CTLA-4 antigen (soluble) (human, UniProt P16410 36-161); assay: SPR, BIAcore T200; antibody captured on mouse anti-huIgG-Fab, antigen injected
# T3 construct: also called hu CTLA4; soluble CTLA-4 antigen
# T3 sequence: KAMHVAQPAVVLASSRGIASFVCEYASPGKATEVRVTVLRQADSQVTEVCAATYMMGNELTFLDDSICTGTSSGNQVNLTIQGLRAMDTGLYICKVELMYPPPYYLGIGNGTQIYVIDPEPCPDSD
# cynomolgus CTLA-4 = target: T4, cynomolgus CTLA-4 (cynomolgus, UniProt G7PL88 36-161); assay: as above
# T4 construct: also called cyno CTLA4
# T4 sequence: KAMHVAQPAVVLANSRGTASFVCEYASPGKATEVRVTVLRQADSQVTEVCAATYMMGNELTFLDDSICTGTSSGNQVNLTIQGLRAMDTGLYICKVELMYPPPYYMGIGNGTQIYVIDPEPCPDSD
# [5] = target: T5, human PD-1 expressed on cells (human, UniProt Q15116 25-288); assay: flow cytometry receptor occupancy, CHO cells expressing PD-1:CTLA-4 (10:1); free PD-1 detected with labeled anti-PD-1 mAb
# T5 construct: also called CHO cells overexpressing human PD1
# [6] = target: T6, human CTLA-4 expressed on cells (human, UniProt P16410 36-223); assay: flow cytometry receptor occupancy, CHO cells expressing PD-1:CTLA-4 (10:1); free CTLA-4 detected with labeled anti-CTLA-4 mAb
# T6 construct: also called CTLA-4 reporter cells
# T6 sequence: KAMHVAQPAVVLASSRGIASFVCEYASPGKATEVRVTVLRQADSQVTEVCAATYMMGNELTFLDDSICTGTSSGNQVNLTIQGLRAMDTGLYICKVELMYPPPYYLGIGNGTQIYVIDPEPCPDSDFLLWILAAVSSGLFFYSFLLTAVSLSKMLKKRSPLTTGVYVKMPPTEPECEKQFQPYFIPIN
# [7] = target: T6, human CTLA-4 expressed on cells; assay: flow cytometry receptor occupancy, CHO cells expressing PD-1:CTLA-4 (40:1); free CTLA-4 detected with labeled anti-CTLA-4 mAb
# [8] = target: T6, human CTLA-4 expressed on cells; assay: flow cytometry receptor occupancy, CHO cells expressing PD-1:CTLA-4 (40:1), combination of the anti-PD-1 and anti-CTLA-4 mAbs; free CTLA-4 detected with labeled anti-CTLA-4 mAb; label stands beside the dark-diamond curve, which crosses 50 % at about 2.5 nM
# [9] = target: T7, His-tagged PD-L1-Fc (human recombinant protein, R&D Systems) (human, UniProt Q9NZQ7 19-238); assay: Octet: PDL1-HiS-Fc loaded anti-HiS sensor, 5ug/mL rhOx40-Fc association
# T7 construct: also called PD-L1-His
# T7 sequence (Q9NZQ7 19-238 limits assumed): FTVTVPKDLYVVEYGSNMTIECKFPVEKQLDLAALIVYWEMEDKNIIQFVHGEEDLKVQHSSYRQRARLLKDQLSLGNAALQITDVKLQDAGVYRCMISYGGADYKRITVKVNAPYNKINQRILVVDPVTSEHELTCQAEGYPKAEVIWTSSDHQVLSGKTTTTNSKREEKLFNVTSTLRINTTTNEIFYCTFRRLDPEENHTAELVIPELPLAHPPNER
# T5 sequence (Q15116 25-288 limits assumed): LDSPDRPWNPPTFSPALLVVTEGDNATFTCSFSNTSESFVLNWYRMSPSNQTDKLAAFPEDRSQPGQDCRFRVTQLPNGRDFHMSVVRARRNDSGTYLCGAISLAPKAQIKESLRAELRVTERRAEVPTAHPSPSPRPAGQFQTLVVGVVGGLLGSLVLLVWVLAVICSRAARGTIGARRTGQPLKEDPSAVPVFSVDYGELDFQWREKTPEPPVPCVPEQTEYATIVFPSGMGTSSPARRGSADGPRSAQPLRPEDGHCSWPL
binder,measurement,setting,value
"OX40(SLR)/PD-L1 BiS5 (bispecific antibody, human IgG1, kappa, also called BiS5 OX40Ab/PD-L1; PD-L1/OX40 BiS5) heavy: QVQLQESGPGLVKPSQTLSLTCAVYGGSFSSGYWNWIRKHPGKGLEYIGYISYNAITYHNPSLKSRITINRDTSKNQYSLQLNSVTPEDTAVYYCARYKYDYEGGHAMDYWGQGTLVTVSSASTKGPSVFPLAPSSKSTSGGTAALGCLVKDYFPEPVTVSWNSGALTSGVHTFPAVLQSSGLYSLSSVVTVPSSSLGTQTYICNVNHKPSNTKVDKRVEPKSCDKTHTCPPCPAPELLGGPSVFLFPPKPKDTLMISRTPEVTCVVVDVSHEDPEVKFNWYVDGVEVHNAKTKPREEQYNSTYRVVSVLTVLHQDWLNGKEYKCKVSNKALPAPIEKTISKAKGQPREPQVYTLPPSREEMTKNQVSLTCLVKGFYPSDIAVEWESNGGGGSGGGGSEVQLVESGGGLVQPGGSLRLSCAASGFTFSRYWMSWVRQAPGKCLEWVANIKQDGSEKYYVDSVKGRFTISRDNAKNSLYLQMNSLRAEDTAVYYCAREGGWFGELAFDYWGQGTLVTVSSGGGGSGGGGSGGGGSGGGGSEIVLTQSPGTLSLSPGERATLSCRASQRVSSSYLAWYQQKPGQAPRLLIYDASSRATGIPDRFSGSGSGTDFTLTISRLEPEDFAVYYCQQYGSLPWTFGCGTKVEIKGGGGSGGGGSGQPENNYKTTPPVLDSDGSFFLYSKLTVDKSRWQQGNVFSCSVMHEALHAHYTQKSLSLSPGK light: not shown",binding result,[1],binds
same,binding result,[2],binds
same,binding result,[3],binds
"Anti-CTLA-4 IgG (antibody, V domains shown, also called tremelimumab; MEDI1123) VH: QVQLVESGGGVVQPGRSLRLSCAASGFTFSSYGMHWVRQAPGKGLEWVAVIWYDGSNKYYADSVKGRFTISRDNSKNTLYLQMNSLRAEDTAVYYCARDPRGATLYYYYYGMDVWGQGTTVTVSS VL: DIQMTQSPSSLSASVGDRVTITCRASQSINSYLDWYQQKPGKAPKLLIYAASSLQSGVPSRFSGSGSGTDFTLTISSLQPEDFATYYCQQYYSTPFTFGPGTKVEIK",Kd,[4],0.48 nM
same,koff,[4],0.000304 s⁻¹
same,kon,[4],633000 M⁻¹ s⁻¹
same,Kd,cynomolgus CTLA-4,0.59 nM
same,koff,cynomolgus CTLA-4,0.000674 s⁻¹
same,kon,cynomolgus CTLA-4,1.15e+06 M⁻¹ s⁻¹
same,binding result,[5],no binding (tested: about 200 nM)
same,IC50,[6],5 nM
same,IC50,[7],4.4 nM
same,IC50,[8],2.4 nM
B1,binding result,[9],no binding (tested: 5ug/mL)

# Source: patent US20220251204A1 (AstraZeneca / MedImmune, published 2022)
